B1: bispecific FLT3xCD3 IgGsc antibody V2-V6 (CC-2 variant 2) (bispecific antibody)
heavy: QVQLVQSGAEVKKPGGSLRLSCAASGYTFTSYWMHWVRQAPGQGLEWIGEIDPSDSYTDYAQKFKDRVTISRDTSKNTLYLQLSSLRAEDTAVYYCARAITTTPFDFWGQGTLVTVSSASTKGPSVFPLAPSSKSTSGGTAALGCLVKDYFPEPVTVSWNSGALTSGVHTFPAVLQSSGLYSLSSVVTVPSSSLGTQTYICNVNHKPSNTKVDKKVEPKSCDKTHTCPPCPAPPVAGPSVFLFPPKPKDTLMISRTPEVTCVVVGVSHEDPEVKFNWYVDGVEVHNAKTKPREEQYNSTYRVVSVLTVLHQDWLNGKEYKCKVSNKQLPSPIEKTISKAKGQPREPQVYTLPPSRDELTKNQVSLTCLVKGFYPSDIAVEWESNGQPENNYKTTPPVLDSDGSFFLYSKLTVDKSRWQQGNVFSCSVMHEALHNHYTQKSLSLSPGKSGDIQMTQSPSSLSASVGDRVTITCRASQDIRNYLNWYQQKPGKAPKLLIYYTSRLESGVPSRFSGSGSGTDYTLTISSLQPEDFATYYCQQGNTLPWTFGQGTKVEIKGGGGSGGGGSGGGGSEVQLVESGGGLVQPGGSLRLSCAASGYSFTGYTMNWVRQAPGKGLEWVALINPYKGVSTYNQKFKDRFTISVDKSKNTAYLQMNSLRAEDTAVYYCARSGYYGDSDWYFDVWGQGTLVTVSS
light: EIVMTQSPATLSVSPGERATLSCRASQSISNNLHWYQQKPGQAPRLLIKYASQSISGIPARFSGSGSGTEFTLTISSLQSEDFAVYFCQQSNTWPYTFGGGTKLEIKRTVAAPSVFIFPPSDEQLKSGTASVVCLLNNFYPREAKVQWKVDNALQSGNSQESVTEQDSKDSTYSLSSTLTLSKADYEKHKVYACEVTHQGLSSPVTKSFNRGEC
notes: Fc-attenuated IgGsc format; also called Version 2; CC-2 V2
B2: bispecific FLT3xCD3 IgGsc antibody V1-V6 (CC-2 variant 1) (bispecific antibody)
heavy: B1 heavy
light: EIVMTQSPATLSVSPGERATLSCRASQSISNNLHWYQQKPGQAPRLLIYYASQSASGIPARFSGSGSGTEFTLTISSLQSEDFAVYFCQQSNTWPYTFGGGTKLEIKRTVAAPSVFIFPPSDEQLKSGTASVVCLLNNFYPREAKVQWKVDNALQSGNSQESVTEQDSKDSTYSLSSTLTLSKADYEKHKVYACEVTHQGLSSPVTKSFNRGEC
notes: Fc-attenuated IgGsc format: VH-CH1-CH2mod-CH3-scFv(UCHT1 V6) heavy chain and VL-CL light chain; also called Version 1; CC-2 V1
B3: bispecific FLT3xCD3 IgGsc antibody V5-V6 (CC-2 variant 5) (bispecific antibody)
heavy: B1 heavy with T58K, A61N
light: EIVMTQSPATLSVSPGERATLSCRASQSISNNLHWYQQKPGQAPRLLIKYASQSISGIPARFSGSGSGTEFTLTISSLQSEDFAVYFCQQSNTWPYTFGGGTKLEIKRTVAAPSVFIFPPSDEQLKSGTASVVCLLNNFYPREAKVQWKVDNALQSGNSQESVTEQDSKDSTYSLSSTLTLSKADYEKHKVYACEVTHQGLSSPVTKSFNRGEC
notes: Fc-attenuated IgGsc format; also called Version 5; CC-2 V5
B4: bispecific FLT3xCD3 IgGsc antibody V3-V6 (CC-2 variant 3) (bispecific antibody)
heavy: QVQLVQSGAEVKKPGASVKVSCKASGYTFTSYWMHWVRQAPGQGLEWIGEIDPSDSYKDYNQKFKDRVTMTRDTSTSTVYMELSSLRSEDTAVYYCARAITTTPFDFWGQGTTVTVSSASTKGPSVFPLAPSSKSTSGGTAALGCLVKDYFPEPVTVSWNSGALTSGVHTFPAVLQSSGLYSLSSVVTVPSSSLGTQTYICNVNHKPSNTKVDKKVEPKSCDKTHTCPPCPAPPVAGPSVFLFPPKPKDTLMISRTPEVTCVVVGVSHEDPEVKFNWYVDGVEVHNAKTKPREEQYNSTYRVVSVLTVLHQDWLNGKEYKCKVSNKQLPSPIEKTISKAKGQPREPQVYTLPPSRDELTKNQVSLTCLVKGFYPSDIAVEWESNGQPENNYKTTPPVLDSDGSFFLYSKLTVDKSRWQQGNVFSCSVMHEALHNHYTQKSLSLSPGKSGDIQMTQSPSSLSASVGDRVTITCRASQDIRNYLNWYQQKPGKAPKLLIYYTSRLESGVPSRFSGSGSGTDYTLTISSLQPEDFATYYCQQGNTLPWTFGQGTKVEIKGGGGSGGGGSGGGGSEVQLVESGGGLVQPGGSLRLSCAASGYSFTGYTMNWVRQAPGKGLEWVALINPYKGVSTYNQKFKDRFTISVDKSKNTAYLQMNSLRAEDTAVYYCARSGYYGDSDWYFDVWGQGTLVTVSS
light: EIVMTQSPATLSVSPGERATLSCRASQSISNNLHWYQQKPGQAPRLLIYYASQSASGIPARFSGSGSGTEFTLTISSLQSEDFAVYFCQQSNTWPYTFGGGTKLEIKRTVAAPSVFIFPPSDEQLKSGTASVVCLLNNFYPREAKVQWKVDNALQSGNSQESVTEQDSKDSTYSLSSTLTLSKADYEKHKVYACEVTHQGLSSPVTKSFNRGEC
notes: Fc-attenuated IgGsc format; also called Version 3; CC-2 V3
B5: bispecific FLT3xCD3 IgGsc antibody V4-V6 (CC-2 variant 4) (bispecific antibody)
heavy: B4 heavy
light: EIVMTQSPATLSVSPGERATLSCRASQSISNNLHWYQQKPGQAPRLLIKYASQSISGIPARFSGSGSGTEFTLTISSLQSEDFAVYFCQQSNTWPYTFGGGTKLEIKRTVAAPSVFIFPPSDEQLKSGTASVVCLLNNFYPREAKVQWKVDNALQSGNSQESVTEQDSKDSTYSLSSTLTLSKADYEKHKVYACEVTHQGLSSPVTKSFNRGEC
notes: Fc-attenuated IgGsc format; also called Version 4; CC-2 V4
B6: bispecific FLT3xCD3 IgGsc antibody V6-V8 (bispecific antibody)
heavy: QVQLQQPGAELVKPGASLKLSCKSSGYTFTSYWMHWVRQRPGHGLEWIGEIDPSDSYKDYNQKFKDKATLTVDRSSNTAYMHLSSLTSDDSAVYYCARAITTTPFDFWGQGTTLTVSSASTKGPSVFPLAPSSKSTSGGTAALGCLVKDYFPEPVTVSWNSGALTSGVHTFPAVLQSSGLYSLSSVVTVPSSSLGTQTYICNVNHKPSNTKVDKKVEPKSCDKTHTCPPCPAPPVAGPSVFLFPPKPKDTLMISRTPEVTCVVVGVSHEDPEVKFNWYVDGVEVHNAKTKPREEQYNSTYRVVSVLTVLHQDWLNGKEYKCKVSNKQLPSPIEKTISKAKGQPREPQVYTLPPSRDELTKNQVSLTCLVKGFYPSDIAVEWESNGQPENNYKTTPPVLDSDGSFFLYSKLTVDKSRWQQGNVFSCSVMHEALHNHYTQKSLSLSPGKSGDIQMTQSPSSLSASVGDRVTITCRASQDIRNYLNWYQQKPGKAPKLLIYYTSRLESGVPSRFSGSGSGTDYTLTISSLQPEDFATYYCQQGNTLPWTFGQGTKVEIKGGGGSGGGGSGGGGSEVQLVESGGGLVQPGGSLRLSCAASGYSFTGYTMNWVRQAPGKGLEWVALINPYKGVSTYNQKFKDRFTISVDDSKNTAYLQMNSLRAEDTAVYYCARSGYYGDSDWYFDVWGQGTLVTVSS
light: DIVLTQSPATLSVTPGDSVSLSCRASQSISNNLHWYQQKSHESPRLLIKYASQSISGIPSRFSGSGSGTDFTLSINSVETEDFGVYFCQQSNTWPYTFGGGTKLEIKRTVAAPSVFIFPPSDEQLKSGTASVVCLLNNFYPREAKVQWKVDNALQSGNSQESVTEQDSKDSTYSLSSTLTLSKADYEKHKVYACEVTHQGLSSPVTKSFNRGEC
notes: Fc-attenuated IgGsc format; also called CC-2 V8
B7: bispecific FLT3xCD3 IgGsc antibody V6-V7 (bispecific antibody)
heavy: B6 heavy with N632A, Q633D, K634S, D637G
light: B6 light
notes: Fc-attenuated IgGsc format; also called CC-2 V7

Residue numbers refer to the chain shown, from its start. A value given as a limit tells only on which side of the number the result lay.

One assay concerns the target T1, FLT3 on Nalm16 cells (human, UniProt P36888 27-993).
T1 construct: whole, on cells; Endogenous FLT3 of the NALM16 leukemia cell line; also called NALM16 (FLT3+); NALM-16 cells expressing FLT3
T1 sequence (looked up): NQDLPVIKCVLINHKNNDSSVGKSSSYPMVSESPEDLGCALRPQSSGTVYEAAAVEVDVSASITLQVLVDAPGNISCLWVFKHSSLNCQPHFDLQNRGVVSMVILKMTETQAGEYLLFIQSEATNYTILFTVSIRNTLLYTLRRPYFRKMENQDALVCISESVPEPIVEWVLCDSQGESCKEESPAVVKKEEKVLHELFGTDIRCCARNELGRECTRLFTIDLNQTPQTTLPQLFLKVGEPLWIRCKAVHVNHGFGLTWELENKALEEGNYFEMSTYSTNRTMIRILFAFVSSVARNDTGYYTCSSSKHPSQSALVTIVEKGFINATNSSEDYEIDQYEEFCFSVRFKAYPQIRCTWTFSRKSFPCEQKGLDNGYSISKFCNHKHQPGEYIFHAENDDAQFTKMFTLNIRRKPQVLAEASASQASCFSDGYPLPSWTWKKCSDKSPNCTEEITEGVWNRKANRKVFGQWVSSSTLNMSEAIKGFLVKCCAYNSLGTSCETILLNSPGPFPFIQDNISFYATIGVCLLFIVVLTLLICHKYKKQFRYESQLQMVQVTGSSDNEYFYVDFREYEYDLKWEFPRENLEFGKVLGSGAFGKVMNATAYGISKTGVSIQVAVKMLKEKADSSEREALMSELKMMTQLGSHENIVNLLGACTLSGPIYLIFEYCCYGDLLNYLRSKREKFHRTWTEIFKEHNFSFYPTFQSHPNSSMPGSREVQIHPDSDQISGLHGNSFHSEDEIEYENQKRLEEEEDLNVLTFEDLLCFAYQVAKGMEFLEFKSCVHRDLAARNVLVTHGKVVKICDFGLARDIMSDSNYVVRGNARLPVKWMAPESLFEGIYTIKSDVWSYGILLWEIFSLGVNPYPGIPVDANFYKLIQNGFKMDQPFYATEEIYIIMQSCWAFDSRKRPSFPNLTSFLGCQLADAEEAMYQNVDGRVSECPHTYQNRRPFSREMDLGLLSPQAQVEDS
Nature of the assay: flow cytometry (row 'EC50, FACS binding' under the bars; binding to NALM16 cells of FIG. 4). On the procedure:
(§1) In addition, antibody binding affinity was also tested using binding of the antibody to its target(s) as expressed on cells. Analyzed is the binding of CC-2 variants to Nalm16 cells expressing FLT3 (FIG. 4) or Jurkat cells expressing CD3 (FIG. 6). Variants V1 to V9 (with V6 being V6-V6) were produced after transient transfection of CHO cells using the insert sequences listed above. The antibodies were purified by protein A affinity- and size exclusion-chromatography. […] To measure antibody binding to FLT3 and CD3 NALM16 (FLT3+) and Jurkat (CD3+) cells were incubated with the respective variants for 30 min, washed, stained with a goat anti human Fcγ-specific and PE-conjugated secondary antibody (Jackson Immuno Research), washed again and analyzed by flow cytometry (FACSCalibur, BD Biosciences).
Regarding B1, the EC50 was 0.01 µM.
Same read-out and setting: the result for B2 reads greater than 0.01 µM; that for B3, 0.0013 µM.
The molecule B4 came in with an EC50 of 0.008 µM.
The molecule B5 registered an EC50 of 0.005 µM.

For the next assay, the target named is T2, CD3 on Jurkat cells (human, UniProt P07766 23-207).
T2 construct: whole, on cells; also called Jurkat (CD3+); human cluster of differentiation 3 (CD3) antigen
T2 sequence (P07766 23-207): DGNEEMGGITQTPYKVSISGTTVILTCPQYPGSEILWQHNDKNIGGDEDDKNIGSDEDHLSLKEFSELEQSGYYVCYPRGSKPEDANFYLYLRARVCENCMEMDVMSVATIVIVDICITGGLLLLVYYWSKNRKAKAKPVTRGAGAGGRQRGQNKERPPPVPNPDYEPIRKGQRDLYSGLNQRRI
Nature of the assay: flow cytometry (value under the bar; by the legend the EC50 of the binding to Jurkat cells of FIG. 6). How it is done:
as §1
The molecule B6 had a concentration for a half-maximal effect (EC50) of 0.092 µM.
Same read-out and setting: the result for B7 reads 0.496 µM.

For the next assay, the target named is T1, FLT3 on Nalm16 cells. The assay is described as follows: flow cytometry on NALM16 cells (FLT3+), 30 min incubation, PE-conjugated goat anti-human Fc-gamma secondary antibody. On the procedure: as §1
As for B3, the “EC50 (read off the curve)” value is roughly 0.001 µM.
As for B4, the concentration for a half-maximal effect (EC50 (read off the curve)) was roughly 0.008 µM.
The same measure, in the same setting: the figure for B5 is roughly 0.005 µM.

For another assay, the target named is T3, His tagged, recombinant FLT3 protein (Sino Biologicals) (human, UniProt P36888 27-541, limits assumed).
T3 construct: Bought protein; also called soluble recombinant FLT3 protein; not shown: His tag
T3 sequence (looked up): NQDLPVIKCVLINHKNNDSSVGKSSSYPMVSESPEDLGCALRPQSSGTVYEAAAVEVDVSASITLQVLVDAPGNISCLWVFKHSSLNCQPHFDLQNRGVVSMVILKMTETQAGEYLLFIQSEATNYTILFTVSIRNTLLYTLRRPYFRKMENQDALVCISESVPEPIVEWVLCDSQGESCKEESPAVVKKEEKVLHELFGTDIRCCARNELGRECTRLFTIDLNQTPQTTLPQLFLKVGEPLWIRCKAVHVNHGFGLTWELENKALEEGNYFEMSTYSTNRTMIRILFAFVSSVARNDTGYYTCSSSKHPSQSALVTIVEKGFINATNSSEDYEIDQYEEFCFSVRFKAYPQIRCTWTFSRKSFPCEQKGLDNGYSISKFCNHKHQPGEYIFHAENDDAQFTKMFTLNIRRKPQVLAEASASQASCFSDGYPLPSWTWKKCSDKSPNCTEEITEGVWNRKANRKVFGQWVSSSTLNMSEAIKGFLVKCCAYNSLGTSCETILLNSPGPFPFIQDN
Nature of the assay: SPR (Biacore X); antibody captured on protein A chip, His-tagged recombinant FLT3 in solution. On the procedure:
FIG. 3 depicts binding of different CC-2 variants to soluble recombinant FLT3 protein. Respective antibody variants were immobilized to a Biacore chip coated with protein A and binding of His tagged, recombinant FLT3 protein (Sino Biologicals) was determined using a Biacore X instrument (GE Healthcare). Shown are the results of various mutated variants of the FLT3 antigen binding domain (V1 to V5).
In FIG. 3 the binding of different FLT3 binding domain variants V1 to V5 as indicated above was tested for their dissociation constant using a soluble recombinant FLT3 protein. Respective antibody variants were immobilized to a Biacore chip coated with protein A and binding of His tagged, recombinant FLT3 protein (Sino Biologicals) was determined using a Biacore X instrument (GE Healthcare).
For B1, the dissociation constant (Kd) was 88 µM, the koff stood at 0.0318 s⁻¹ and the kon was 540 M⁻¹ s⁻¹.
In the same order, the values of B2 are 63 µM, 0.022 s⁻¹ and 489 M⁻¹ s⁻¹.
The like results for B3 were, in that order, 0.16 µM, 0.00449 s⁻¹ and 29600 M⁻¹ s⁻¹.
In the same order, the values of B4 are 87 µM, 0.0233 s⁻¹ and 276 M⁻¹ s⁻¹.
With B5, the Kd is 0.48 µM, the dissociation rate constant (koff) was determined as 0.00887 s⁻¹ and the on-rate (kon) stood at 18800 M⁻¹ s⁻¹.

The values above are taken from patent US20220056141A1 (DEUTSCHES KREBSFORSCHUNGSZENTRUM STIFTUNG DES OFFENTLICHEN …, published 2022).
